{"source": "patent US6846636B1", "about": "“Methods and compositions for HDL holoparticle uptake receptor” (American National Red Cross, priority 1998, dated 2005)", "molecules": {"B1": {"name": "RAP: 39 kDa chaperone protein that inhibits ligand binding to LDLR family members; recombinant human RAP (protein, UniProt P30533 35-357, looked up)", "Alpha-2-macroglobulin …": "YSREKNQPKPSPKRESGEEFRMEKLNQLWEKAQRLHLPPVRLAELHADLKIQERDELAWKKLKLDGLDEDGEKEARLIRNLNVILAKYGLDGKKDARQVTSNSLSGTQEDGLDDPRLEKLWHKAKTSGKFSGEELDKLWREFLHHKEKVHEYNVLLETLSRTEEIHENVISPSDLSDIKGSVLHSRHTELKEKLRSINQGLDRLRRVSHQGYSTEAEFEEPRVIDLWDLAQSANLTDKELEAFREELKHFEAKIEKHNHYQKQLEIAHEKLRHAESVGDGERVSRSREKHALLEGRTKELGYTVKKHLQDLSGRISRARHNEL"}}, "key": {"[1]": {"test_system": "RA/Bt2cAMP-treated F9 cells", "test": "DiI-HDL uptake by fluorescence-activated cell (FAC) scanning", "assay_type": "cell-based, mouse", "settings": "DiI-HDL 1 μg/ml, 37° C.; competitors preincubated; apolipoproteins and RAP 1 μM, apoE 0.25 μM, heparin 80 μM, IgGs 200 μg/ml, heparinase I 10 U/ml", "procedure": "Untreated and RA/Bt2cAMP-treated F9 cells (1-1.5×10^5 cells/cm^2) were grown for 18 hours in serum-free medium (DMEM, ITS, penicillin, and streptomycin). After washing the cell layers with the same serum-free medium, apoE-free DiI-HDL was added to a final concentration of 1 μg/ml and incubated for 1-2 hours at 37° C., 5% CO2. For competition experiments, competitors were added in serum-free medium and incubated for 0.5 hours at 37° C., 5% CO2 prior to the addition of the DiI-HDL. After the incubation, the medium was removed, cell layers washed with serum-free medium and the cells released with a 0.5 mg/ml trypsin-0.53 mM EDTA solution (Mediatech). The cells were then pelleted by centrifugation at 180×g and resuspended in DMEM. Twice more, the cells were pelleted by centrifugation at 180×g, and resuspended in dPBS. The cells were then subjected to FAC sorting on a FACStarplus instrument (Becton Dickinson, San Jose, Calif.).\nRA/Bt2cAMP-treated and -untreated F9 cells (1-1.5×10^5 cclls/cm^2) were grown for 18 h in SFM. After washing the cell layers with SFM, DiI-HDL or DIO-LDL was added to a final concentration of 1 μg/ml and incubated for 2 h at 37° C., 5% CO2. For competition experiments, competitors (HDL, HDL2, HDL3 and their corresponding apoE-free forms), LDL, oxidized LDL, VLDL, §-VLDL, Lp(a) ([…]), apoA-I (28.3 μg/ml, 1 μM), apoA-II (I 7.3 μg/ml, 1 μM), apoC-I (6.6 μg/ml, 1 μM), apoC-III (8.8 μg/ml, 1 μM), apoJ (70 μg/ml, 1 μM), ovalbumin (45 μg/ml, 1 μM), RAP (39 μg/ml, 1 μM), apoE (8.5 μg/ml, 0.25 μM), heparin (80 μM, 250 U/ml) or IgGs (200 μg/ml) were added in SFM and incubated for 45 min at 37° C., 5% CO2 prior to the addition of the fluorescent lipoproteins. After the incubation, the medium was removed, cell layers were washed with SFM and the cells were released with trypsin-EDTA-proteinase K. The cells were washed once with DMEM, twice with dPBS, then subjected to FAC scanning on a FACStar Plus instrument (Becton Dickinson, San Jose, Calif.). Plotted data are from gated cells having fluorescence intensity values greater than the autofluorescence values of 99% of unlabeled cells. For some experiments, cell layers were treated with hepaninase I (10 U/ml) for 2 h prior to the addition of the DiI-HDL."}, "[2]": {"test_system": "RA/Bt2cAMP-treated F9 cells", "test": "DiI-HDL uptake by laser scanning confocal fluorescence microscopy", "assay_type": "cell-based, mouse", "settings": "DiI-HDL 1 μg/ml, 2-4 h at 37° C., LDL 40 μg/ml, RAP 1 μM", "procedure": "Cells were plated into gelatin-coated wells of 8-well plastic chamber slides (Nalge Nunc, Naperville, Ill.) (4×10^4 cells/cm^2) and incubated at 37° C., 5% CO2 for 2 hours. The cells were washed with serum-free DMEM and incubated in serum-free DMEM containing ITS (insulin 5 μg/ml, transferrin 5 μg/ml, sodium selenite 5 ng/ml, Boehringer Mannheim, Germany), penicillin, and streptomycin for 18 hours at 37° C., 5% CO2. Prior to addition of DiI-HDL, the cells were incubated with serum-free DMEM containing unlabeled HDL3 (40 μg/ml) or RAP (1 μM) for 0.5 hour at 37° C., 5% CO2. DiI-HDL (1 μg/ml) in serum-free DMEM or in serum-free DMEM containing unlabeled HDL3 (40 μg/ml) or RAP (1 μM) was then incubated with the cells for 2-4 hours at 37° C., 5% CO2. The cells were washed three times with Dulbecco's phosphate buffered saline (dPBS), fixed in 3% formaldehyde in dPBS for 20 minutes at room temperature. […]\nCells were plated into gelatin-coated wells of plastic chamber slides (Nalge Nunc, Naperville, Ill.) (4×10^4 cells/cm^2) and incubated at 37° C., 5% CO2 for 2 h. […] The cells were washed with dPBS, fixed in 3% formaldehyde in dPBS for 20 min at 25° C. and analyzed using a BiORad MRC1024 laser scanning confocal microscope."}}, "note": "“Also recorded” adds a separate entry of the source.", "data": [{"molecule": "B1", "values": [{"measurement": "DiI-HDL uptake in presence of competitor", "setting": "[1]", "result": "could be blocked; also recorded: completely blocked"}, {"measurement": "uptake of DiI-HDL (cell staining)", "setting": "[2]", "result": "completely blocked"}]}]}
